Measured values from publication PMC5821459.

Target: L1 ORF2p-3xFLAG (ORFeus-Hs, pLD401, WT) (human) (UniProt O00370)
Assay: affinity purification with mass spectrometry; On-bead RNase-sensitivity assay: ORF2p-3xFLAG (pLD401) captured on α-FLAG magnetic medium from HEK-293T_LD extract in 20 mM HEPES-Na pH 7.4, 500 mM NaCl, 1% Triton X-100; medium treated with RNases A and T1 or with BSA, 30 min RT; retained material eluted with LDS; label-swapped SILAC

Sequence of UniProt O00370 (O00370 whole entry): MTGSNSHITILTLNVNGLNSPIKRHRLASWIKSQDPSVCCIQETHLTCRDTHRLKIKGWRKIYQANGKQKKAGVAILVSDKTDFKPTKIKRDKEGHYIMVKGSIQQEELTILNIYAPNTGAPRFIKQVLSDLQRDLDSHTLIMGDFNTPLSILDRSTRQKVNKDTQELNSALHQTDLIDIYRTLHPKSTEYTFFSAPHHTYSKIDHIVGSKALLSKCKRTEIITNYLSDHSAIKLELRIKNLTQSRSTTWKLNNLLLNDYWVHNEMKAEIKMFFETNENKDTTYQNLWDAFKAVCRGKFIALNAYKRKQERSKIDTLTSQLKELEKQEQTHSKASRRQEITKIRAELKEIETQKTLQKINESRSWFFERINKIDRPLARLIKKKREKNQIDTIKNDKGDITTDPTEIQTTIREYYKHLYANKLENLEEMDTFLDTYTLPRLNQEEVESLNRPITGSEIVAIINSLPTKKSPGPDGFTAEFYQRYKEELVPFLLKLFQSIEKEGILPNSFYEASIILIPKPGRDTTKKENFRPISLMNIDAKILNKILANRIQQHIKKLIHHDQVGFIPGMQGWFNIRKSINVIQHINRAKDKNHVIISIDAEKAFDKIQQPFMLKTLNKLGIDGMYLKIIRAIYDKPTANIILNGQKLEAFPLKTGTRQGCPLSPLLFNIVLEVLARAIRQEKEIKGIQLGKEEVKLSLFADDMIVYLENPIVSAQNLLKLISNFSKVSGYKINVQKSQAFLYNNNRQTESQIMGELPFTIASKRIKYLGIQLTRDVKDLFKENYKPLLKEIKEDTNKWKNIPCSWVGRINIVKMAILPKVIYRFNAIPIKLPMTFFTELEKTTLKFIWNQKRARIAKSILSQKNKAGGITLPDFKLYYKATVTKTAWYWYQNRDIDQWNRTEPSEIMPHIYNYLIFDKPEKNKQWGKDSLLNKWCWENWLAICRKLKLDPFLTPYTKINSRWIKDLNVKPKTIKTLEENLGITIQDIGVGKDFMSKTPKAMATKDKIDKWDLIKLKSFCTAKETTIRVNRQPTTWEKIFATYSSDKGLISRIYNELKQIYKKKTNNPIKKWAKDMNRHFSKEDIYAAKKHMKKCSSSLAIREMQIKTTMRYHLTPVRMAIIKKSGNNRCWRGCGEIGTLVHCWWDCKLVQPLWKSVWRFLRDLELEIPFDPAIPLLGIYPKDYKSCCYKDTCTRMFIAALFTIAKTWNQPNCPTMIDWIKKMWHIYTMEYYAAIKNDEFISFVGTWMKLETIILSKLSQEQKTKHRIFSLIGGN

RNase sensitivity relative to that of MOV10: 62%
Substance: Regulator of nonsense transcripts 1 (from UniProt Q92900 1-1129) (natural protein)
